Here are results for one molecule from article PMC2908316 (Journal of biomolecular screening, 2009).

Assay [1] concerns the target T1, full-length RGS8, GST-fusion protein, biotinylated (UniProt P49804 1-180, biotin on amines (Biotin-NHS, 3:1 biotin:RGS)).
T1 sequence (looked up): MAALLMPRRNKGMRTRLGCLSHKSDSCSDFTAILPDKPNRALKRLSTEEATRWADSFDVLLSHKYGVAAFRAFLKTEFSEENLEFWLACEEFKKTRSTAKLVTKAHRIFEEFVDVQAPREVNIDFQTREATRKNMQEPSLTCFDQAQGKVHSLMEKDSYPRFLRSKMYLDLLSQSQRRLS
In words: flow cytometry protein interaction assay.

For assay [2], the target named is T2, RGS7 RH domain, GST-fusion protein, biotinylated (UniProt P49802 333-448, biotin on amines (Biotin-NHS, 3:1 biotin:RGS)).
T2 sequence (looked up): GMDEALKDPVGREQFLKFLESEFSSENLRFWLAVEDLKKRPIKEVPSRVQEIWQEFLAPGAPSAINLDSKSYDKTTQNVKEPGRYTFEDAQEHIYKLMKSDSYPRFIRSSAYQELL
In words: flow cytometry protein interaction assay. Background: Flow cytometry measures light scatter and fluorescence of single cells or particles in a stream.

B1: Rat Gαo, N-terminal 6X-HIS tagged, labeled with AlexaFluor 532 (natural protein, UniProt P59215 1-354, looked up)
chain: MGCTLSAEERAALERSKAIEKNLKEDGISAAKDVKLLLLGAGESGKSTIVKQMKIIHEDGFSGEDVKQYKPVVYSNTIQSLAAIVRAMDTLGVEYGDKERKADSKMVCDVVSRMEDTEPFSAELLSAMMRLWGDSGIQECFNRSREYQLNDSAKYYLDSLDRIGAADYQPTEQDILRTRVKTTGIVETHFTFKNLHFRLFDVGGQRSERKKWIHCFEDVTAIIFCVALSGYDQVLHEDETTNRMHESLMLFDSICNNKFFIDTSIILFLNKKDLFGEKIKKSPLTICFPEYPGSNTYEDAAAYIQTQFESKNRSPNKEIYCHMTCATDTNNIQVVFDAVTDIIIANNLRGCGLY
modifications: AlexaFluor 532 carboxylic acid succinimidyl ester label, 3:1 fluorophore:protein ratio
B1: the “bead-associated fluorescence, positive control mean (with AlF4-)” value amounted to 2060 in assay [1] and 948 in assay [2].
